The target in one test is Arap3 Sam (Homo sapiens) (UniProt Q8WWN8). Kind of test: ITC. The conditions noted are these: cited from earlier work.
A further test addresses EphA2 Sam (Homo sapiens) (UniProt P29317). Briefly: ITC. The conditions noted are these: cited from earlier work.
The target of test [1] is T1, Sam domain of Arap3 (Arap3-Sam), His-tag cut away with thrombin (human, UniProt Q8WWN8 1-80).
T1 construct: Arap3, human, residues 1 to 80, encompassing the Sam domain (residues 4 to 68); same construct as m1 after thrombin cleavage of the His-tag; A few vector residues probably remain at the N-terminus after thrombin cleavage; source: E. coli BL21-Gold (DE3), pET15b, purified (nickel column); His-tag cut with thrombin, thrombin removed on a benzamidine column; not shown: His6, N-terminal, cleaved
T1 sequence (looked up): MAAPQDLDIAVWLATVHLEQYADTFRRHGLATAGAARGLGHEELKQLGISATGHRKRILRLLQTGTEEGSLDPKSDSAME
Briefly: ITC; 25 C, VP-ITC; Shiptide (1 mM) titrated into Arap3-Sam (75 uM, His-tag cut away); 1 x PBS pH 7.7; one binding site model; repeated twice. The conditions noted are these: both partners purified. (In general: In ITC the heat of successive injections is recorded.)

Consider two molecules from PMC2755476, “The Sam domain of the lipid phosphatase Ship2 adopts a common model to interact with Arap3-Sam and EphA2-Sam” (BMC Structural Biology, 2009).

Chain of EphA2 Sam (Homo sapiens) (P29317 901-971): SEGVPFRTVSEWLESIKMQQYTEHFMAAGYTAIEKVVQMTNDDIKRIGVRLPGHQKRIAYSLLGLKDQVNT

The term Kd denotes a measure of binding affinity in units of concentration. For Ship2 Sam (from UniProt O15357), the Kd is 0.1 µM with Arap3 Sam (Homo sapiens) and 0.75 µM with EphA2 Sam (Homo sapiens).

B1: Ship2-peptide Ac-EGLVHNGWDDLEFLSDITEEDL-NH2 (Shiptide) (peptide)
peptide: Ac-EGLVHNGWDDLEFLSDITEEDL-NH2
notes: region of Ship2-Sam, amino acids from 43 to 64. numbers count on: the Ship2-Sam construct, as in PDB 2K4P; source: synthetic peptide; purchased from the Protein/DNA Facility of the Medical College of Wisconsin
What is called stoichiometry N is the number of molecules, sites or subunits per partner or assembly. Turning to B1, in test [1], binding was characterised by a dissociation constant (Kd) of 40 ± 7 µM, the dH was -10.9 ± 3.86 kJ/mol and the “stoichiometry N” value was 0.8 ± 0.1.
